Results from publication PMC6838084.

Legend:
[1] = target: α2 peptide chain of human α2δ-1 with an N-terminal double strep II-tag (α2 NTST) (human); test: ELISA; ELISA-style ligand binding assay; α2δ-1S NTST (20 or 10 µg/ml) or α2 NTST (10 µg/ml) coated on 96-well plates; soluble TSP at a single concentration of 1,000 nM; TBS pH 7.4 with 1 mM Ca2+; 2 h at RT; detection with TSP-specific antibody/antiserum (Fig. 3A, 3C)
[2] = target: soluble C-terminal deletion mutant of human α2δ-1 with an N-terminal double strep II-tag (α2δ-1S NTST) (human); test: ELISA; ELISA-style titration; α2δ-1S NTST (20 µg/ml) coated; TSP-4 11-1,505 nM; TBS pH 7.4 without Ca2+; RT; apparent KD
[3] = target: soluble C-terminal deletion mutant of human α2δ-1 with an N-terminal double strep II-tag (α2δ-1S NTST) (human); test: ELISA; ELISA-style titration; α2δ-1S NTST (20 µg/ml) coated; TSP-4 11-1,505 nM; TBS pH 7.4 + 1 mM Ca2+; RT; apparent KD

Sequence of thrombospondin-4 (TSP-4), recombinant full-length rat, N-terminal double strep II-tag (P49744 43-980): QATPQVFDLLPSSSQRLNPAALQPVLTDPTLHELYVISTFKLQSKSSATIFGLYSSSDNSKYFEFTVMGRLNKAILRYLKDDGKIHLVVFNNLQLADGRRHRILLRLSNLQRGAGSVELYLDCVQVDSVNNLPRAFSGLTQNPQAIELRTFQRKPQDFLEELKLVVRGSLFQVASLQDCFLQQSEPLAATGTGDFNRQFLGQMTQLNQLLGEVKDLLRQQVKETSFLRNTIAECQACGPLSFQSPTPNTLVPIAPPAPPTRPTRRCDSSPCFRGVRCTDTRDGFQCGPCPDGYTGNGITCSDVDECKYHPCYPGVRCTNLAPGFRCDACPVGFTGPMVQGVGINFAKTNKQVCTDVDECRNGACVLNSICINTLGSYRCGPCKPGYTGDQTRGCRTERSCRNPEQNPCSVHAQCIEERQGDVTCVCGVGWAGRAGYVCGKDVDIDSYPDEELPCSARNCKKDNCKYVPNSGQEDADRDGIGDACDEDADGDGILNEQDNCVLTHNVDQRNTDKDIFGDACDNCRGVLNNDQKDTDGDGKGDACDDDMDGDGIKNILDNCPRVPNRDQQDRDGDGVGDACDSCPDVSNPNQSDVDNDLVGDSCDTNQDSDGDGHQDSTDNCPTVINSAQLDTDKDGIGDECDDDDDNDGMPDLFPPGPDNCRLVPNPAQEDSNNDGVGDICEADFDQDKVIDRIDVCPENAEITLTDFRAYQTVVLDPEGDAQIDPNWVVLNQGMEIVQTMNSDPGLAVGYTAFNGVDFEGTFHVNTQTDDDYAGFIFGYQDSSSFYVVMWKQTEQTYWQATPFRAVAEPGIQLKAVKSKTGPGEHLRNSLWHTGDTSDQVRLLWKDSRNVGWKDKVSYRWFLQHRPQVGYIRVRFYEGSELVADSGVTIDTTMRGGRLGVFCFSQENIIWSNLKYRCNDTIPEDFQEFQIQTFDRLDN

fold change of the binding signal against α2δ-1S NTST [1]: 2 fold
Kd [2]: 198 nM
Kd [3]: 153 nM
Substance: thrombospondin-4 (TSP-4), recombinant full-length rat, N-terminal double strep II-tag (from UniProt P49744 43-980) (natural protein)
